According to patent US20050261190A1 (SK, published 2005):

Legend:
[1] = target: T1, polyubiquitin chains (Ub2-7), synthetic Lys48-linked (UniProt P0CG47 1-76, units linked by Lys48 isopeptide bonds); test: GST pull-down, immunoblot with anti-ubiquitin
T1 construct: A mixture of chains of 2 to 7 ubiquitin units; also called multiubiquitin chains

[2] = target: heat shock protein 70 inducible (Hsp70), endogenous (human, UniProt P0DMV8 2-641); test: cell-based or functional assay
[3] = target: T2, heat shock protein 70 cognate (Hsc70), endogenous (human, UniProt P11142 2-646); test: co-immunoprecipitation with anti-Flag M2 agarose from HEK293T lysate, 2D gel, MALDI-TOF MS (table of Flag-hFAF1 binding proteins)
T2 construct: In the 1D western blots it is detected together with Hsp70 by one anti-Hsc70/Hsp70 monoclonal antibody; statements on 'Hsc70/Hsp70' are written once for each of the two; also called member of Hsc70/Hsp70
T2 sequence (P11142 2-646 limits assumed): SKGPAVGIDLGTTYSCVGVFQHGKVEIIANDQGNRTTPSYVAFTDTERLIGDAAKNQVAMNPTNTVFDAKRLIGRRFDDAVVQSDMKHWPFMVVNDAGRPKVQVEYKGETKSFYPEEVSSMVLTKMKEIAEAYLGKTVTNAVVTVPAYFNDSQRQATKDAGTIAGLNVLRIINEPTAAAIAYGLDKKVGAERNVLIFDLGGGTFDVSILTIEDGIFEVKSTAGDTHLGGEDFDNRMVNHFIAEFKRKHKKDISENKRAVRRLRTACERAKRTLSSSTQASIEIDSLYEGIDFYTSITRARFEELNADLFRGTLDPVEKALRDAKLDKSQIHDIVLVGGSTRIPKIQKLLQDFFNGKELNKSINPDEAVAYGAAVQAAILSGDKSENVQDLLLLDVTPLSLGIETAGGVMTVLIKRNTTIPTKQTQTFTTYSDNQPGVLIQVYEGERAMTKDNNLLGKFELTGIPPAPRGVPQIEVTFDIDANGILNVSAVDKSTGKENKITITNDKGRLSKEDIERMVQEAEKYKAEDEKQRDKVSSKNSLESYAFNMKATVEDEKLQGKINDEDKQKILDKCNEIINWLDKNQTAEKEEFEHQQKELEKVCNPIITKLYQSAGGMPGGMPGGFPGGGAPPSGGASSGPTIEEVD
Source text: Protein spots detected in the autoradiogram were cut out from the corresponding silver stained gel and subjected to in-gel digestion with trypsin and mass peptide fingerprint analyses using MALDI-TOF MS.

bacterial Hsp70, DnaK = bacterial Hsp70, DnaK (E. coli, UniProt P0A6Y8 2-638); test: not told (data not shown)
Sequence of bacterial Hsp70, DnaK (P0A6Y8 2-638 limits assumed): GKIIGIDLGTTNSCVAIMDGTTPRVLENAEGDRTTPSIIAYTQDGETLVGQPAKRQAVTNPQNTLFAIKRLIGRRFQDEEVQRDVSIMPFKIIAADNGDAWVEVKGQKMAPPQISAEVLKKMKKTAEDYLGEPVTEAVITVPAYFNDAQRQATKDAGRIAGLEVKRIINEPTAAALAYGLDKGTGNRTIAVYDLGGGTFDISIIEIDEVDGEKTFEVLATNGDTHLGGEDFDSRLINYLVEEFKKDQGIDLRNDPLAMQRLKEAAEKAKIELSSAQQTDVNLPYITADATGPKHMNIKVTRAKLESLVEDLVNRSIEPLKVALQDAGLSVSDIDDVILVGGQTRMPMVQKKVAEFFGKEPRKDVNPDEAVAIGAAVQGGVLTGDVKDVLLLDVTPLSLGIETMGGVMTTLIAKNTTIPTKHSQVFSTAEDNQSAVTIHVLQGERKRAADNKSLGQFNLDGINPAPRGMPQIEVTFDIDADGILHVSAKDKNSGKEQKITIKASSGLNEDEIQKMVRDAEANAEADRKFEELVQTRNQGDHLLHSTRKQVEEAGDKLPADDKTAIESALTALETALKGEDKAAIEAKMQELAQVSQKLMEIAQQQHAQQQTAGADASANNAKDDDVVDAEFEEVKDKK

Sequence of heat shock protein 70 inducible (Hsp70), endogenous (P0DMV8 2-641): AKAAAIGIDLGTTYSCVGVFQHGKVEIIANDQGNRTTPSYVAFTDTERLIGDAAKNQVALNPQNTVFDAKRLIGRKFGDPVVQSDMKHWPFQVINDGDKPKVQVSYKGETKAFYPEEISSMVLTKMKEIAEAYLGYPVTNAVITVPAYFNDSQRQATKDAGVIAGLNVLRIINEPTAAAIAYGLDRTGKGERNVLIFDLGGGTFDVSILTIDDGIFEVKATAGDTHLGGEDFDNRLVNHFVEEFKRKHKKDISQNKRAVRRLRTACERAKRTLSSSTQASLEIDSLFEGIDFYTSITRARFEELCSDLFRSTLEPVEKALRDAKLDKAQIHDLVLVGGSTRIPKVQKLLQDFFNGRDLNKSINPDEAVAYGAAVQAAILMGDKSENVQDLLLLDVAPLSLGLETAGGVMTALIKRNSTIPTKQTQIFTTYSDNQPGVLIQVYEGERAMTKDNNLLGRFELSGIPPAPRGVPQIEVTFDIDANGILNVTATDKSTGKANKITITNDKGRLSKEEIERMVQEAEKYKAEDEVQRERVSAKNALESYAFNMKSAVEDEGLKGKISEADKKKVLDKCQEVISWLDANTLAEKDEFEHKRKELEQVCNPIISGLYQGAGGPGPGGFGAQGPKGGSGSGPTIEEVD

B1: GST-hFAF1[82-650] (other)
chain: SAFRPVMPSRQIVERQPRMLDFRVEYRDRNVDVVLEDTCTVGEIKQILENELQIPVSKMLLKGWKTGDVEDSTVLKSLHLPKNNSLYVLTPDLPPPSSSSHAGALQESLNQNFMLIITHREVQREYNLNFSGSSTIQEVKRNVYDLTSIPVRHQLWEGWPTSATDDSMCLAESGLSYPCHRLTVGRRSSPAQTREQSEEQITDVHMVSDSDGDDFEDATEFGVDDGEVFGMASSALRKSPMMPENAENEGDALLQFTAEFSSRYGDCHPVFFIGSLEAAFQEAFYVKARDRKLLAIYLHHDESVLTNVFCSQMLCAESIVSYLSQNFITWAWDLTKDSNRARFLTMCNRHFGSVVAQTIRTQKTDQKPLFLIIMGKRSSNEVLNVIQGNTTVDELMMRLMAAMEIFTAQQQEDIKDGDEREARENVKREQDEAYRLSLEADRAKREAREREMAEQFRLEQIRKEQEEEREAIRLSLEQALPPEPKEENAEPVSKLRIRTPSGEFLERRFLASNKLQIVFDFVASKGFPWDEYKLLSTFPRRDVTQLDPNKSLLEVKLFPQETLFLEAKE
notes: Immobilized on glutathione sepharose; also called amino acid 82-650; not shown: glutathione S-transferase (GST) tag
binding result [1]: no binding

B2: Flag-tagged hFAF1 (human Fas associated factor 1, full form) (other)
chain: MASNMDREMILADFQACTGIENIDEAITLLEQNNWDLVAAINGVIPQENGILQSEYGGETIPGPAFNPASHPASAPTSSSSSAFRPVMPSRQIVERQPRMLDFRVEYRDRNVDVVLEDTCTVGEIKQILENELQIPVSKMLLKGWKTGDVEDSTVLKSLHLPKNNSLYVLTPDLPPPSSSSHAGALQESLNQNFMLIITHREVQREYNLNFSGSSTIQEVKRNVYDLTSIPVRHQLWEGWPTSATDDSMCLAESGLSYPCHRLTVGRRSSPAQTREQSEEQITDVHMVSDSDGDDFEDATEFGVDDGEVFGMASSALRKSPMMPENAENEGDALLQFTAEFSSRYGDCHPVFFIGSLEAAFQEAFYVKARDRKLLAIYLHHDESVLTNVFCSQMLCAESIVSYLSQNFITWAWDLTKDSNRARFLTMCNRHFGSVVAQTIRTQKTDQKPLFLIIMGKRSSNEVLNVIQGNTTVDELMMRLMAAMEIFTAQQQEDIKDGDEREARENVKREQDEAYRLSLEADRAKREAREREMAEQFRLEQIRKEQEEEREAIRLSLEQALPPEPKEENAEPVSKLRIRTPSGEFLERRFLASNKLQIVFDFVASKGFPWDEYKLLSTFPRRDVTQLDPNKSLLEVKLFPQETLFLEAKE
notes: Transiently overexpressed in HEK293T cells and pulled out of the lysate with anti-Flag M2 agarose; also called Flag-hFAF1; pFlag-CMV-2/hFAF1; not shown: Flag tag from the pFlag-CMV-2 vector
SAPK/JNK activity after heat shock [2]: 16 fold | binding result [3]: binds

B3: purified recombinant hFAF1 (other)
chain: MASNMDREMILADFQACTGIENIDEAITLLEQNNWDLVAAINGVIPQENGILQSEYGGETIPGPAFNPASHPASAPTSSSSSAFRPVMPSRQIVERQPRMLDFRVEYRDRNVDVVLEDTCTVGEIKQILENELQIPVSKMLLKGWKTGDVEDSTVLKSLHLPKNNSLYVLTPDLPPPSSSSHAGALQESLNQNFMLIITHREVQREYNLNFSGSSTIQEVKRNVYDLTSIPVRHQLWEGWPTSATDDSMCLAESGLSYPCHRLTVGRRSSPAQTREQSEEQITDVHMVSDSDGDDFEDATEFGVDDGEVFGMASSALRKSPMMPENAENEGDALLQFTAEFSSRYGDCHPVFFIGSLEAAFQEAFYVKARDRKLLAIYLHHDESVLTNVFCSQMLCAESIVSYLSQNFITWAWDLTKDSNRARFLTMCNRHFGSVVAQTIRTQKTDQKPLFLIIMGKRSSNEVLNVIQGNTTVDELMMRLMAAMEIFTAQQQEDIKDGDEREARENVKREQDEAYRLSLEADRAKREAREREMAEQFRLEQIRKEQEEEREAIRLSLEQALPPEPKEENAEPVSKLRIRTPSGEFLERRFLASNKLQIVFDFVASKGFPWDEYKLLSTFPRRDVTQLDPNKSLLEVKLFPQETLFLEAKE
notes: also called hFAF1 cleaved by thrombin from GST-hFAF1
binding result (bacterial Hsp70, DnaK): binds

B4: Flag-hFAF1[366-650] (other, not shown: small tags and cut ends)
chain: YVKARDRKLLAIYLHHDESVLTNVFCSQMLCAESIVSYLSQNFITWAWDLTKDSNRARFLTMCNRHFGSVVAQTIRTQKTDQKPLFLIIMGKRSSNEVLNVIQGNTTVDELMMRLMAAMEIFTAQQQEDIKDGDEREARENVKREQDEAYRLSLEADRAKREAREREMAEQFRLEQIRKEQEEEREAIRLSLEQALPPEPKEENAEPVSKLRIRTPSGEFLERRFLASNKLQIVFDFVASKGFPWDEYKLLSTFPRRDVTQLDPNKSLLEVKLFPQETLFLEAKE
SAPK/JNK activity after heat shock [2]: 13 fold
